One assay concerns the target Fc protein. Nature of the assay: phage ELISA on coated Fc protein, blank control. (In general: ELISA stands for enzyme-linked immunosorbent assay.)
Assay [1] deals with CD8α-Fc fusion protein (human). Nature of the assay: phage ELISA on coated CD8α-Fc, blank control.

The source of these data is patent publication US20240209089A1.

“And” between values parts separate entries of the source, which are not always exact repeats. Identical values can stand only once.

Chain of CD8α-Fc fusion protein (human) (chain, as listed by the source): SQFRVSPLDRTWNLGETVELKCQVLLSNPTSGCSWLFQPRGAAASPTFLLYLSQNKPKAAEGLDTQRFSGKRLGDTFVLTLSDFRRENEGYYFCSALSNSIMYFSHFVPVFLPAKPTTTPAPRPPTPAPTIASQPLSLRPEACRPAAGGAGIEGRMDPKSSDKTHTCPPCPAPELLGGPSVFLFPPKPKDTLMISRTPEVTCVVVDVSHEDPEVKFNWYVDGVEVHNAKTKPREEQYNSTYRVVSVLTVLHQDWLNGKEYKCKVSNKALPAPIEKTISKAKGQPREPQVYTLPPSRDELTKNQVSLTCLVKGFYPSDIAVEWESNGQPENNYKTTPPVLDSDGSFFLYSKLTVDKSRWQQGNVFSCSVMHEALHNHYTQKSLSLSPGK

For blank phage, the OD450 with Fc protein was 0.093 and 0.068; in assay [1], 0.067.
